From patent publication US20230250154A1

How the values were obtained:
ADAMTS4 (human) = ADAMTS4 (human) (UniProt O75173); experiment: cell-based or functional assay
ADAMTS5 (human) = ADAMTS5 (human) (UniProt Q9UNA0); experiment: cell-based or functional assay
Sequence of ADAMTS5 (human) (Q9UNA0 262-622 limits assumed): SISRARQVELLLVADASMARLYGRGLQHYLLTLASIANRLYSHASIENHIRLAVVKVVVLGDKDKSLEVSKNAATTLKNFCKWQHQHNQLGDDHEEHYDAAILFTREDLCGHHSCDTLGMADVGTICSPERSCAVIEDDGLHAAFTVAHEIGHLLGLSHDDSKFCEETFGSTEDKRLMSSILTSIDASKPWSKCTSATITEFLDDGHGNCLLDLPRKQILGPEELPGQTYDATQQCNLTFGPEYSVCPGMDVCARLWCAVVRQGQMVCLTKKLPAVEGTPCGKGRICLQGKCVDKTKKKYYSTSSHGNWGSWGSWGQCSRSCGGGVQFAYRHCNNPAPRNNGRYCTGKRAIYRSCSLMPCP

Sequence of ADAMTS4 (human) (O75173 213-685 limits assumed): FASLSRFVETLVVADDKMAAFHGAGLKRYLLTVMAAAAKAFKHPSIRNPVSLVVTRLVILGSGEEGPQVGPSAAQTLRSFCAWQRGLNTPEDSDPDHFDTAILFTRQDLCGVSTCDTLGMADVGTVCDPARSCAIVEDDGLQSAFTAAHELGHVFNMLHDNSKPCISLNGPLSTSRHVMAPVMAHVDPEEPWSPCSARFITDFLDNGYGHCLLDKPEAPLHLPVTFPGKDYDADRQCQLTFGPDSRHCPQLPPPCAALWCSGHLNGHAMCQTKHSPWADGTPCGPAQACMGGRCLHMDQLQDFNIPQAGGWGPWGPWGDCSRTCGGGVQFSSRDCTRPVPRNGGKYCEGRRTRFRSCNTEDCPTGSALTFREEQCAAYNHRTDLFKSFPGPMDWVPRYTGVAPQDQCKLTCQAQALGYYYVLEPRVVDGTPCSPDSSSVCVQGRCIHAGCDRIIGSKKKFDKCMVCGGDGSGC

IC50 needed to inhibit cartilage catabolism (ADAMTS4 (human)): 3 µg/mL
IC50, inhibition of cartilage catabolism in bovine cartilage explants (ADAMTS5 (human)): 7000 µg/mL
IC50 needed to inhibit cartilage catabolism (ADAMTS5 (human)): 7 µg/mL
Maximum inhibition of cartilage catabolism in bovine cartilage explants (ADAMTS5 (human)): 90%
Substance: purified human A2M (from UniProt P01023 24-1474)
